The supplement of paper PMC10201428
± gives the standard deviation of the averaged measurements.

Key:
[1] = test system: VchCAST RNA-guided transposition machinery (E. coli BL21(DE3) host, lacZ target); test: relative integration efficiency (T-RL orientation) vs wild-type transposon end (log2 (normalized fold change)); transposon end mutated: right end (5 bp flank + 75 bp right end); higher = more efficient transposition
Method in brief: (§1)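 Barcoded pools of 1549 left-end or 1849 right-end transposon variants were cloned into a pUC57 mini-transposon donor. Each pool was co-transformed with a T7-driven effector plasmid (CRISPR array, tniQ-cas8-cas7-cas6, tnsA-tnsB-tnsC) into E. coli BL21(DE3) and plated with 0.1 mM IPTG at 37°C for 18 h. Input plasmids and genomic integration junctions were PCR-amplified and Illumina-sequenced, with two biological output replicates and four wild-type barcodes as reference. Relative integration efficiency is output/input barcode abundance fold change, normalised to wild-type barcodes and log-transformed.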

[2] = test system: VchCAST RNA-guided transposition machinery (E. coli BL21(DE3) host, lacZ target); test: relative integration efficiency (T-LR orientation) vs wild-type transposon end (log2 (normalized fold change)); transposon end mutated: right end (5 bp flank + 75 bp right end); higher = more efficient transposition
Method in brief: as §1

Sequence	relative integration efficiency (log2) [1]	relative integration efficiency (log2) [2]
ACATTTGTGGATACAACCCTAAAATGATAATTACACCCATAAATTCATAATTATCACCCCCAATTTAACTATAACGCTCTGATCATAGTCAGACCAACATTGCTACGACCCGTATTCGCACCGACAC	-4.88 ± 0.16	-2.64 ± 0.13
ACATTTGTGGATACAACCCTAAAATGATAATTACACCCATAAATTCATCATTATCACACCCAATTTAACTATAACGCTCTGATCATAGTCAGACCAACATTGCTACGACCCGTATTCGCACCGACAC	-4.92 ± 0.15	-1.67 ± 0.21
ACATTTGTGGATACAACCCTAAAATGATAATTACACCCATAAATTCATCATTATCACCCCCAATTTAACTATAACGCTCTGATCATAGTCAGACCAACATTGCTACGACCCGTATTCGCACCGACAC	-4.53 ± 0.011	-1.47 ± 0.4
ACATTTGTGGATACAACCCTAAAATGATAATTACACCCATAAATTGATAATTATCACACCCAATTTAACTATAACGCTCTGATCATAGTCAGACCAACATTGCTACGACCCGTATTCGCACCGACAC	-1.73 ± 0.26	1.32 ± 0.36
ACATTTGTGGATACAACCCTAAAATGATAATTACACCCATAAATTGATAATTATCACCCCCAATTTAACTATAACGCTCTGATCATAGTCAGACCAACATTGCTACGACCCGTATTCGCACCGACAC	-2.2 ± 0.29	0.686 ± 0.29
ACATTTGTGGATACAACCCTAAAATGATAATTACACCCATAAATTGATCATTATCACACCCAATTTAACTATAACGCTCTGATCATAGTCAGACCAACATTGCTACGACCCGTATTCGCACCGACAC	-3.19 ± 0.51	0.117 ± 0.091
ACATTTGTGGATACAACCCTAAAATGATAATTACACCCATAAATTGATCATTATCACCCCCAATTTAACTATAACGCTCTGATCATAGTCAGACCAACATTGCTACGACCCGTATTCGCACCGACAC	-2.87 ± 0.27	0.316 ± 0.5
ACATTTGTGGATCCAACCATAAAATGATAATTACACCCATAAATGGATAATTATCACACCCAATTTAACTATAACGCTCTGATCATAGTCAGACCAACATTGCTACGACCCGTATTCGCACCGACAC	-1.38 ± 0.18	1.18 ± 0.021
ACATTTGTGGATCCAACCATAAAATGATAATTACACCCATAAATGGATCATTATCACACCCAATTTAACTATAACGCTCTGATCATAGTCAGACCAACATTGCTACGACCCGTATTCGCACCGACAC	-1.79 ± 0.39	0.845 ± 0.06
ACATTTGTGGATCCAACCATAAAATGATAATTACACCCATAAATTCATAATTATCACACCCAATTTAACTATAACGCTCTGATCATAGTCAGACCAACATTGCTACGACCCGTATTCGCACCGACAC	-2.04 ± 0.41	1.043 ± 0.0096
ACATTTGTGGATCCAACCATAAAATGATAATTACACCCATAAATTCATCATTATCACACCCAATTTAACTATAACGCTCTGATCATAGTCAGACCAACATTGCTACGACCCGTATTCGCACCGACAC	-2.28 ± 0.22	1.15 ± 0.38
ACATTTGTGGATCCAACCATAAAATGATAATTACACCCATAAATTGATAATTATCACACCCAATTTAACTATAACGCTCTGATCATAGTCAGACCAACATTGCTACGACCCGTATTCGCACCGACAC	-0.789 ± 0.2	2.06 ± 0.17
ACATTTGTGGATCCAACCATAAAATGATAATTACACCCATAAATTGATCATTATCACACCCAATTTAACTATAACGCTCTGATCATAGTCAGACCAACATTGCTACGACCCGTATTCGCACCGACAC	-1.6 ± 0.2	1.72 ± 0.11
ACATTTGTGTATACAACCATAAAATGATAATTACACCCATAAATTGATAATTATCACACCCATAAATTGATATTGCCTCTGATCATAGTCAGACCAACATTGCTACGACCCGTATTCGCACCGACAC	0.00813 ± 0.2	-0.811 ± 0.61
ACATTTGTGTCGACAACCATAAAATGATAATTACACCCATAAATTGATAATTATCACACCCATAAATTGATATTGCCTCTGATCATAGTCAGACCAACATTGCTACGACCCGTATTCGCACCGACAC	-0.916 ± 0.027	-2.89 ± 0.57
